Measurements from publication PMC6535546, “Novel Carbapenemases FLC-1 and IMI-2 Encoded by an Enterobacter cloacae Complex Isolated from Food Products” (Antimicrobial Agents and Chemotherapy, 2019).

Columns and labels:
[1] = biological target: T1, FLC-1 (FRI-like carbapenemase-1) (Enterobacter cloacae, UniProt A0A2I5JVQ1); assay: nitrocefin hydrolysis inhibition; type: biochemical
T1 construct: gene bla; plasmid p3442-FLC-1 gene cloned in pBAD-FLC, expressed in E. coli LMG194; unpurified soluble (cytoplasmic) fraction; about 33 kDa
Description: nitrocefin hydrolysis inhibition on FLC-1 (FRI-like carbapenemase-1) | the inhibition of FLC-1 enzymatic activity by clavulanic acid was tested

[2] = test system: CC1(C)S[C@@H]2[C@H](NC(=O)[C@H](N)c3ccccc3)C(=O)N2[C@H]1C(=O)O; assay: cells, lysate or membranes; type: biochemical, Enterobacter cloacae; details: PBS, 0.01% Triton X-100, pH 7.4, 23°C, cytoplasmic fraction of E. coli LMG194 producing FLC-1
[3] = test system: CO/N=C(\C(=O)N[C@@H]1C(=O)N2C(C(=O)O)=C(COC(C)=O)CS[C@H]12)c1csc(N)n1; assay: cells, lysate or membranes; type: biochemical, Enterobacter cloacae; details: PBS, 0.01% Triton X-100, pH 7.4, 23°C, cytoplasmic fraction of E. coli LMG194 producing FLC-1
[4] = test system: C[C@@H](O)[C@H]1C(=O)N2C(C(=O)O)=C(SCCN=CN)C[C@H]12; assay: cells, lysate or membranes; type: biochemical, Enterobacter cloacae; details: PBS, 0.01% Triton X-100, pH 7.4, 23°C, cytoplasmic fraction of E. coli LMG194 producing FLC-1
[5] = test system: C[C@@H](O)[C@H]1C(=O)N2C(C(=O)O)=C(S[C@@H]3CN[C@H](C(=O)N(C)C)C3)[C@H](C)[C@H]12; assay: cells, lysate or membranes; type: biochemical, Enterobacter cloacae; details: PBS, 0.01% Triton X-100, pH 7.4, 23°C, cytoplasmic fraction of E. coli LMG194 producing FLC-1
[6] = test system: C[C@@H](O)[C@H]1C(=O)N2C(C(=O)O)=C(S[C@@H]3CN[C@H](C(=O)Nc4cccc(C(=O)O)c4)C3)[C@H](C)[C@H]12; assay: cells, lysate or membranes; type: biochemical, Enterobacter cloacae; details: PBS, 0.01% Triton X-100, pH 7.4, 23°C, cytoplasmic fraction of E. coli LMG194 producing FLC-1

T1 sequence (A0A2I5JVQ1 entry or part of it): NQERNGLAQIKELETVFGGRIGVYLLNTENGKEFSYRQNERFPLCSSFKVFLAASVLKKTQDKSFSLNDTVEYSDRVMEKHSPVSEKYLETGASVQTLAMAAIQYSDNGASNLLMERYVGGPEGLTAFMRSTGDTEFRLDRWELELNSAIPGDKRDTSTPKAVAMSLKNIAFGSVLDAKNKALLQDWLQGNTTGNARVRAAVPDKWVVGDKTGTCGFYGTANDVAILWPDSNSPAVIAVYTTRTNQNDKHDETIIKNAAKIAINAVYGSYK

O=C(O)[C@H]1/C(=C/CO)O[C@@H]2CC(=O)N21 [clavulanic acid]
IC50 [1]: 1.97 ± 0.09 µM

FLC-1 (FRI-like carbapenemase-1) (Enterobacter cloacae)
Km [2]: 1,649 ± 174.2 μM
Km [3]: 377.1 ± 110.6 µM
Km [4]: 177.2 ± 12.5 µM
Km [5]: 32.4 ± 9.3 µM
Km [6]: 29.6 ± 11.7 µM
